Assay [1] has as its target T1, RZZS rings: mCherry-RZZ polymerized with farnesylated GFP-Spindly in the presence of MPS1 kinase domain (UniProt P50748 1-2209; Q9H900 1-591; O43264 1-779; Q96EA4 1-605, incubated with MPS1 kinase domain and ATP (the paper names T13 and S15 of ROD as the MPS1 sites) | farnesylated).
T1 construct: ROD, subunit of the RZZ complex; Zwilch, subunit of the RZZ complex; ZW10, subunit of the RZZ complex; Spindly, dynein-dynactin adaptor; A polymer; also called polymerized RZZS; RZZS filaments; copies: + + +
Nature of the assay: co-sedimentation; pelleting assay: polymerized RZZS incubated with preys 2 hours at 20°C, 40% glycerol cushion, 100,000g 45 min at 20°C; 50 mM Hepes pH 8, 100 mM NaCl, 2 mM MgCl2, 1 mM TCEP. Conditions: both partners purified.

In assay [2] the target is T2, mCherry-tagged ROD-Zwilch-ZW10 (RZZ) complex, wild type (UniProt P50748 1-2209; Q9H900 1-591; O43264 1-779).
T2 construct: ROD, subunit of the RZZ complex; Zwilch, subunit of the RZZ complex; ZW10, subunit of the RZZ complex; also called mCherry-RZZ; mCherry-RZZ^WT; source: expressed and purified using the biGBac system, as previously described; copies: 2 + 2 + 2
The assay is described as follows: pull-down; GST-BUB1 baits on GSH beads, no phosphorylation step; 50 mM Hepes pH 8.0, 100 mM NaCl, 1 mM TCEP; beads 2 hours at 4°C; SDS-PAGE, Coomassie or in-gel fluorescence. Conditions: both partners purified.

T1 sequence (P50748 whole entry, chain 1 of 4, the tested form may be a part): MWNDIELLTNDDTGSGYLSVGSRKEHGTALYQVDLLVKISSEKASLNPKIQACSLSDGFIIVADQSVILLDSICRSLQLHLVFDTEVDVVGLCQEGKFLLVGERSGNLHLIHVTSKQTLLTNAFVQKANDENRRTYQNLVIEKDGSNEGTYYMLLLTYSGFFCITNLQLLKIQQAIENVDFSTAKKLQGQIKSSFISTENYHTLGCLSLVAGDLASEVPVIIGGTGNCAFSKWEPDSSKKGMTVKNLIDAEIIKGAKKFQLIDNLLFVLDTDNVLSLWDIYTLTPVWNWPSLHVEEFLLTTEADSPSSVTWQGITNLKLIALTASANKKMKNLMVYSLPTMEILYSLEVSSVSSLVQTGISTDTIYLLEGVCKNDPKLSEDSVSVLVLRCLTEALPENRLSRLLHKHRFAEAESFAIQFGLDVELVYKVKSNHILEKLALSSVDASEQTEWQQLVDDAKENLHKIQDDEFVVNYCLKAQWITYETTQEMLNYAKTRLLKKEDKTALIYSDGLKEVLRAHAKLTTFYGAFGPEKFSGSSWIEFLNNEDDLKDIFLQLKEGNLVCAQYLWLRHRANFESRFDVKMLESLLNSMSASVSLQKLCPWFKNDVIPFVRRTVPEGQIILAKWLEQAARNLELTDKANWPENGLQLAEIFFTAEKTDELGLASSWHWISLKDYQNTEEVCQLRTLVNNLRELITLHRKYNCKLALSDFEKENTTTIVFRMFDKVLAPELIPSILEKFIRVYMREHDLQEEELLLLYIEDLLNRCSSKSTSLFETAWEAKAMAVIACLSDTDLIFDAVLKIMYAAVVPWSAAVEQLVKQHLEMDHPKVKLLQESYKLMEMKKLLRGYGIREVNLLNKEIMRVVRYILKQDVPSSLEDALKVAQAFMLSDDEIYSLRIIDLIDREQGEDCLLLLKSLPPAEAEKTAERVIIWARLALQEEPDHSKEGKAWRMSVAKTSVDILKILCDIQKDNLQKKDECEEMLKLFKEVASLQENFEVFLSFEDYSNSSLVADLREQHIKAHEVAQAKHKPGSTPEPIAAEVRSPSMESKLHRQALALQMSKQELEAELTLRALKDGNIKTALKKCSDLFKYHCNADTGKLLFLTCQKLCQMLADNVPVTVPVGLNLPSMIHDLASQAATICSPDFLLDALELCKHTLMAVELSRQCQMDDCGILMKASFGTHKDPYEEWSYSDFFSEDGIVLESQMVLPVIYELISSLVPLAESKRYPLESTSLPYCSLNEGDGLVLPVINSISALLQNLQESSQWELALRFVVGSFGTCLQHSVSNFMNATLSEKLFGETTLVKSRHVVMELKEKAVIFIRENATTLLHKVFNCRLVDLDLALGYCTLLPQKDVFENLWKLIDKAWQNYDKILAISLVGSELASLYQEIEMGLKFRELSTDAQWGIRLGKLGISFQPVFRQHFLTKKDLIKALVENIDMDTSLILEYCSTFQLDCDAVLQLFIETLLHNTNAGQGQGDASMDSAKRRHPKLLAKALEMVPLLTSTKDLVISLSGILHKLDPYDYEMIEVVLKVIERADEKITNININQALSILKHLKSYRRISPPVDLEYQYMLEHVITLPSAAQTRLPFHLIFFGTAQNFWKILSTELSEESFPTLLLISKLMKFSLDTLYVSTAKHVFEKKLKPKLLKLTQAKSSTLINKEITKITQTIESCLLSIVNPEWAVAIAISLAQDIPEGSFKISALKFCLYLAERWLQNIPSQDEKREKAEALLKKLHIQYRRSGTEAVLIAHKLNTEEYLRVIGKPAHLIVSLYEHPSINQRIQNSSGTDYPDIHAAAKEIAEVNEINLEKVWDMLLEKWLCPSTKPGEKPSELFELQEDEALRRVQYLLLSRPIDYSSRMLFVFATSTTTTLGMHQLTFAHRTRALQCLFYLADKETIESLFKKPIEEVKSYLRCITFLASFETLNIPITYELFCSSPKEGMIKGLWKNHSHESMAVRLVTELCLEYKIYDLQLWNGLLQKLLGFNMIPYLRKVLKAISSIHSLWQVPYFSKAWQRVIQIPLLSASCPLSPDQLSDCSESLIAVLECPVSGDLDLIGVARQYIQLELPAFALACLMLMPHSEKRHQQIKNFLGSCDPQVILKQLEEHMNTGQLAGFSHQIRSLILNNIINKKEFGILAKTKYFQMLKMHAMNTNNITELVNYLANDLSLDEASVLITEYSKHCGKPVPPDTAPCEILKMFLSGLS
T1 sequence (Q9H900 whole entry, chain 2 of 4, the tested form may be a part): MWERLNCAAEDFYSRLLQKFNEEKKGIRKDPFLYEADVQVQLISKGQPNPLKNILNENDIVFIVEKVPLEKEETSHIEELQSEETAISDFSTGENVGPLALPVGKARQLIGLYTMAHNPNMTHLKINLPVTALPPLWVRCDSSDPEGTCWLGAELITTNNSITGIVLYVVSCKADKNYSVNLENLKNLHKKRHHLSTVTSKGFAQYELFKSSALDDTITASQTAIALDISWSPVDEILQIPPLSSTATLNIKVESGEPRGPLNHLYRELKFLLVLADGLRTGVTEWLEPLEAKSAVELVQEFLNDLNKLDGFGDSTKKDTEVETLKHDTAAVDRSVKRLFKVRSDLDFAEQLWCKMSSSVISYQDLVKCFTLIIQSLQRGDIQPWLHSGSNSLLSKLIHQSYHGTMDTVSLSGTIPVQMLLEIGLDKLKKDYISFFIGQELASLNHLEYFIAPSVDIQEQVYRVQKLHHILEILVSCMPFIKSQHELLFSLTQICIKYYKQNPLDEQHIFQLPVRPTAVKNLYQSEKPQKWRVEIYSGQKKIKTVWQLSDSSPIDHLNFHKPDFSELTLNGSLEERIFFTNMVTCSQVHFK
T1 sequence (O43264 whole entry, chain 3 of 4, the tested form may be a part): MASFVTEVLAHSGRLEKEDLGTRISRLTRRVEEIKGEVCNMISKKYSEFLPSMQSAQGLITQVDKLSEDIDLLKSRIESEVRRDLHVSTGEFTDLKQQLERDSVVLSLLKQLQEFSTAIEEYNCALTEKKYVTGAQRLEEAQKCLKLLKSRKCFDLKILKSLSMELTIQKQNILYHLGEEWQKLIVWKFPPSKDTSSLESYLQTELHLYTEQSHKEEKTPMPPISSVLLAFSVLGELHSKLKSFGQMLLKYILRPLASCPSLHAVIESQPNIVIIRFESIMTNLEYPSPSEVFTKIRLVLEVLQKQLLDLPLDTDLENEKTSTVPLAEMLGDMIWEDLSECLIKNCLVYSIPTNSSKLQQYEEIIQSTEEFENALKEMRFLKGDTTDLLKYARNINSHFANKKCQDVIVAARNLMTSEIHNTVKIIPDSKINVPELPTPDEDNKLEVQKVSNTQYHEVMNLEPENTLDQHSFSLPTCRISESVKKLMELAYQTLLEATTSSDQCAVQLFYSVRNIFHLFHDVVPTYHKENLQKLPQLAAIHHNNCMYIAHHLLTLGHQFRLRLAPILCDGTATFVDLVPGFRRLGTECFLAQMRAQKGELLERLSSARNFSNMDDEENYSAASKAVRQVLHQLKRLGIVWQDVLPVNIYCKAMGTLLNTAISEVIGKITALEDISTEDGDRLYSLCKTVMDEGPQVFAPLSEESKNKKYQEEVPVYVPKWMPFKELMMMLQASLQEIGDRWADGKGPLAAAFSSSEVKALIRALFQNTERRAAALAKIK
T1 sequence (Q96EA4 whole entry, chain 4 of 4, the tested form may be a part): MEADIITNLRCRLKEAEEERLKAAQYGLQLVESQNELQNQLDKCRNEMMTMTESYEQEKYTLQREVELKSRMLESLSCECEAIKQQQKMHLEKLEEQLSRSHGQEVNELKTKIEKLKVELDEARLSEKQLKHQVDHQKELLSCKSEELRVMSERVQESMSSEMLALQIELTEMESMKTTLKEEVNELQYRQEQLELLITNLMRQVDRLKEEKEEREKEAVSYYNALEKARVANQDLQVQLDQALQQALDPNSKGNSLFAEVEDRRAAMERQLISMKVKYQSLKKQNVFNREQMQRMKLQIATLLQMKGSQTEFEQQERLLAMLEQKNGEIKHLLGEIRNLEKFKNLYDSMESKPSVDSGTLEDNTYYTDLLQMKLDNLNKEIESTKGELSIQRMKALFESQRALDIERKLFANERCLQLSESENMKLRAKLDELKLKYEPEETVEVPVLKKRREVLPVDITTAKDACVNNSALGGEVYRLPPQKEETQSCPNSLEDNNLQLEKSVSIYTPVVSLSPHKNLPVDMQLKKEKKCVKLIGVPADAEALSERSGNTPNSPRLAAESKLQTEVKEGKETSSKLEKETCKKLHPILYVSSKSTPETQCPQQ
T2 sequence (P50748 whole entry, chain 1 of 3): as the sequence (P50748 whole entry, chain 1 of 4, the tested form may be a part) above
T2 sequence (Q9H900 whole entry, chain 2 of 3): as the sequence (Q9H900 whole entry, chain 2 of 4, the tested form may be a part) above
T2 sequence (O43264 whole entry, chain 3 of 3): as the sequence (O43264 whole entry, chain 3 of 4, the tested form may be a part) above

B1: GST-BUB1^467-521 (domain or fragment, human, UniProt O43683 467-521, looked up)
chain: ALGFIMNMFQAPTLPDISDDKDEWQSLDQNEDAFEAQFQKNVRSSGAWGVNKIIS
notes: source: E. coli BL21 CodonPlus, purified (GSTrap, SEC); not shown: GST, N-terminal, kept
For B1, the binding result in assay [1] and in assay [2] was “binds” each time.

(Values after paper PMC12429063, “The BUB1 and BUBR1 paralogs scaffold the kinetochore fibrous corona” (Science Advances, 2025).)
